Our source for the Kd and Bmax values is patent publication US20250222128A1 (Zymeworks, published 2025).

Where a chain is given by its changes, count along the chain named.

The target of assay [1] is T1, c-Met (hepatocyte growth factor receptor, HGFR), endogenous on tumour cell lines (UniProt P08581 25-1390, limits assumed).
T1 construct: whole, on cells
Description: apparent Kd, flow cytometry on SNU-5 cells (endogenous cMet). On the procedure:
(§1) Briefly, cells were seeded at 50,000 cells/well in V-bottom 96-well plates and treated with antibody for 24 hours at 4° C. to prevent internalization. Following incubation, cells were washed and stained with anti-human IgG Fc AF647 conjugate (Jackson ImmunoResearch Laboratories, Inc., West Grove, PA; Cat. No. 109-605-098) at 4° C. for 30 min. Following incubation and washing, fluorescence was detected by flow cytometry on a BD LSRFortessa™ Cell Analyzer (BD Biosciences, Franklin Lake, NJ) with 1,000 minimum events collected per well. AF647/APC-A GeoMean (fluorescence signal geometric mean, proportional to anti-Human AF647 binding) in live cell population was plotted using GraphPad Prism Version 8 (GraphPad Software, San Diego, CA).
In general terms: A flow cytometer gives signals particle by particle.

Assay [2] has as its target T1, c-Met (hepatocyte growth factor …). The assay can be described thus: flow cytometry on SNU-5 cells (endogenous cMet), 24 h at 4 C, anti-human IgG Fc AF647. As to the method:
as §1

Assay [3] shares this target. Description: flow cytometry on H292 cells (endogenous cMet), 24 h at 4 C, anti-human IgG Fc AF647. As to the method:
as §1

The target is the same in assay [4]. Description: apparent Kd, flow cytometry on H292 cells (endogenous cMet). As to the method:
as §1

The target is the same in assay [5]. The assay can be described thus: flow cytometry on H292 cells (endogenous cMet), as in Example 10. On the procedure:
as §1
(§2) Cellular binding was determined as described in Example 10.

The target is the same in assay [6]. The assay can be described thus: apparent Kd, flow cytometry on H292 cells (endogenous cMet). As to the method: as §1, §2
The source holds these as a separate data set.

For assay [7] the target is unchanged. The assay can be described thus: flow cytometry on SNU-5 cells (endogenous cMet), as in Example 10. As to the method:
as §1, §2

Assay [8] has the same target. The assay can be described thus: apparent Kd, flow cytometry on SNU-5 cells (endogenous cMet). As to the method:
as §1, §2
The source holds these as a separate data set.

T1 sequence (P08581 25-1390 limits assumed): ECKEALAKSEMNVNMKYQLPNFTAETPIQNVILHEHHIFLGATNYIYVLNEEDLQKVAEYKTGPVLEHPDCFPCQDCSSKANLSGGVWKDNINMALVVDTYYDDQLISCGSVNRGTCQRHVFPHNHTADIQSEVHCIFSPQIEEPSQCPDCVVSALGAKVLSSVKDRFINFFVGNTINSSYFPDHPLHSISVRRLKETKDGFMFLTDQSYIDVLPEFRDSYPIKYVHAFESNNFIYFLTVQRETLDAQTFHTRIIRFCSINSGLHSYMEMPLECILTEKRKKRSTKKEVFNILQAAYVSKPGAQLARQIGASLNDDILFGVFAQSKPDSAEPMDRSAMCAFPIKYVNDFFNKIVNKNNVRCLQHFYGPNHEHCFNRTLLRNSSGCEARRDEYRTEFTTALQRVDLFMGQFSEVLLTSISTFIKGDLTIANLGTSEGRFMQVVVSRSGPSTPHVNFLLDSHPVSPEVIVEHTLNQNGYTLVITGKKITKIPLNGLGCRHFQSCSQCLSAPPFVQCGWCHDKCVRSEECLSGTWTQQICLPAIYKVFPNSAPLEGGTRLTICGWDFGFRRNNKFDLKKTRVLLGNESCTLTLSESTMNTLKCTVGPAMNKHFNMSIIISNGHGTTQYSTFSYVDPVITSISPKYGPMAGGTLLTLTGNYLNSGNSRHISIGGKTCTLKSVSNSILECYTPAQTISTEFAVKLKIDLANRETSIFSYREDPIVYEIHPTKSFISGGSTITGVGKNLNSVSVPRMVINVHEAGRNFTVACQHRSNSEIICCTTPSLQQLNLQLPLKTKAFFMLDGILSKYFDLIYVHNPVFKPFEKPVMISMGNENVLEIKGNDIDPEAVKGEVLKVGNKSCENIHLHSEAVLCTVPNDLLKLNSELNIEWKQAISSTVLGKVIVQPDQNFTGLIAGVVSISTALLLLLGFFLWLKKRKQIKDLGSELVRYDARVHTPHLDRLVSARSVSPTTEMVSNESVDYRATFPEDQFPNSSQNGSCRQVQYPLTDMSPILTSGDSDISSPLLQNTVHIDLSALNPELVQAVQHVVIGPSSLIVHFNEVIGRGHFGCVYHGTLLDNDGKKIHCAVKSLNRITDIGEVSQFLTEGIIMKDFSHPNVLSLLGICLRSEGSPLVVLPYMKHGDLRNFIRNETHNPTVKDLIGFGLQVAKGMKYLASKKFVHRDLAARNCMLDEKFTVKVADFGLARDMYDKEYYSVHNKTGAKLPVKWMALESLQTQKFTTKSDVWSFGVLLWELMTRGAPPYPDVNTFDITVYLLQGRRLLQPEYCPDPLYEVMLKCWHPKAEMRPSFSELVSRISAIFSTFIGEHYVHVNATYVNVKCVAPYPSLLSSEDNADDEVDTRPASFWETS

B1: v32634 (telisotuzumab paratope, HomoFc, unmodified hinge, full-size IgG1 antibody) (antibody, V domains shown)
VH: QVQLVQSGAEVKKPGASVKVSCKASGYIFTAYTMHWVRQAPGQGLEWMGWIKPNNGLANYAQKFQGRVTMTRDTSISTAYMELSRLRSDDTAVYYCARSEITTEFDYWGQGTLVTVSS
VL: DIVMTQSPDSLAVSLGERATINCKSSESVDSYANSFLHWYQQKPGQPPKLLIYRASTRESGVPDRFSGSGSGTDFTLTISSLQAEDVAVYYCQQSKEDPLTFGGGTKVEIKR
notes: also called variant v32634; unconjugated HomoFc variant
Consider B1, for which the Kd in assay [1] is 0.59 nM; in assay [4] it was 0.02 nM. In addition, the Bmax in assay [2] is 37200 AF647 GeoMean fluorescence; in assay [3], 2240 AF647 GeoMean fluorescence.

B2: v32634-Drug-Linker 002 DAR4 (antibody, V domains shown)
VH: B1 VH
VL: B1 VL
modifications: Drug-Linker 002 stochastically conjugated to lysine residues of the antibody, about DAR 4; Drug-Linker 002 (auristatin analogue Compound 1) stochastically conjugated to lysine residues of the antibody, about DAR 4
notes: Antibody-drug conjugate of v32634
Consider B2, for which, in assay [1], the Kd stood at 0.46 nM. In addition, the Bmax in assay [2] was 33700 AF647 GeoMean fluorescence; in assay [3], 2130 AF647 GeoMean fluorescence.

B3: v32634-Drug-Linker 002 DAR6 (antibody, V domains shown)
VH: B1 VH
VL: B1 VL
modifications: Drug-Linker 002 stochastically conjugated to lysine residues of the antibody, about DAR 6; Drug-Linker 002 (auristatin analogue Compound 1) stochastically conjugated to lysine residues of the antibody, about DAR 6
notes: as for B2
B3: the Kd in assay [1] turned out to be 0.71 nM. In addition, the Bmax in assay [2] is 41100 AF647 GeoMean fluorescence; in assay [3], 2200 AF647 GeoMean fluorescence.

B4: v29001 (telisotuzumab paratope, HetFc, unmodified hinge, two cysteine insertions between T299 and Y300) (antibody, human IgG1, kappa)
heavy 1: QVQLVQSGAEVKKPGASVKVSCKASGYIFTAYTMHWVRQAPGQGLEWMGWIKPNNGLANYAQKFQGRVTMTRDTSISTAYMELSRLRSDDTAVYYCARSEITTEFDYWGQGTLVTVSSASTKGPSVFPLAPSSKSTSGGTAALGCLVKDYFPEPVTVSWNSGALTSGVHTFPAVLQSSGLYSLSSVVTVPSSSLGTQTYICNVNHKPSNTKVDKKVEPKSCDKTHTCPPCPAPELLGGPSVFLFPPKPKDTLMISRTPEVTCVVVDVSHEDPEVKFNWYVDGVEVHNAKTKPREEQYNSTCYRVVSVLTVLHQDWLNGKEYKCKVSNKALPAPIEKTISKAKGQPREPQVYVYPPSRDELTKNQVSLTCLVKGFYPSDIAVEWESNGQPENNYKTTPPVLDSDGSFALVSKLTVDKSRWQQGNVFSCSVMHEALHNHYTQKSLSLSPG
heavy 2: B4 heavy 1 with Y353L, T368L, K394L, T396W, A407F, V409Y
light: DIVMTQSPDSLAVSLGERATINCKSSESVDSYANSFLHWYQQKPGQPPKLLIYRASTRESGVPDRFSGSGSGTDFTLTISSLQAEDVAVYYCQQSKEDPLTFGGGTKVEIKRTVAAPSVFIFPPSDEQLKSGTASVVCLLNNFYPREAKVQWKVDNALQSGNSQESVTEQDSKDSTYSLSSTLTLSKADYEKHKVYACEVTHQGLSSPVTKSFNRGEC
notes: also called variant v29001; cysteine insertion variant v29001
For B4, the figures for the Bmax in assay [5] and in assay [7] were 2040 AF647 GeoMean fluorescence and 32100 AF647 GeoMean fluorescence, respectively. The Kd is 0.024 nM in assay [6] and 0.428 nM in assay [8].

B5: v29001-Drug-Linker 003 DAR 4 (antibody, human IgG1, kappa)
heavy 1: B4 heavy 1
heavy 2: B4 heavy 1 with Y353L, T368L, K394L, T396W, A407F, V409Y
light: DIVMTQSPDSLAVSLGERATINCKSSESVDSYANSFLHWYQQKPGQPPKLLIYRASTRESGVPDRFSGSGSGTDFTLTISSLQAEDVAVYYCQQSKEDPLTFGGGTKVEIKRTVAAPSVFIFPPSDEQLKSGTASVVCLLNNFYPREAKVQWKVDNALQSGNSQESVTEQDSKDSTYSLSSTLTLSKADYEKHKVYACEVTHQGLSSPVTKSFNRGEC
modifications: bivalent Drug-Linker 003 on the cysteine inserted between T299 and Y300 (EU); bivalent Drug-Linker 003 (two Compound 1) on the cysteine inserted between T299 and Y300 (EU)
notes: Site-specific cysteine-conjugated antibody-drug conjugate of v29001
Regarding B5, the Bmax is 2048 AF647 GeoMean fluorescence in assay [5] and 38600 AF647 GeoMean fluorescence in assay [7]. For the same molecule, the results for the Kd in assay [6] and in assay [8] were 0.03 nM and 1.13 nM, respectively.

B6: v29001-Drug-Linker 004 DAR 6 (antibody, human IgG1, kappa)
heavy 1: B4 heavy 1
heavy 2: B4 heavy 1 with Y353L, T368L, K394L, T396W, A407F, V409Y
light: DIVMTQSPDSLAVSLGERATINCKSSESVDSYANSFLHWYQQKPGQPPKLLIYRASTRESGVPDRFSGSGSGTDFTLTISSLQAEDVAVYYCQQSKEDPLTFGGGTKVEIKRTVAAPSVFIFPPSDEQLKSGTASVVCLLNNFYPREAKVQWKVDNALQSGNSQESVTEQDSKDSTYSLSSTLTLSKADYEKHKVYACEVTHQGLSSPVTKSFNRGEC
modifications: trivalent Drug-Linker 004 on the cysteine inserted between T299 and Y300 (EU); trivalent Drug-Linker 004 (three Compound 1) on the cysteine inserted between T299 and Y300 (EU)
notes: as for B5
In the case of B6, the Bmax in assay [5] is 2010 AF647 GeoMean fluorescence; in assay [7] it was 37700 AF647 GeoMean fluorescence. In addition, the values for the Kd in assay [6] and in assay [8] were 0.028 nM and 0.615 nM, respectively.

B7: v29001-Drug-Linker 001 DAR 2 (antibody, human IgG1, kappa)
heavy 1: B4 heavy 1
heavy 2: B4 heavy 1 with Y353L, T368L, K394L, T396W, A407F, V409Y
light: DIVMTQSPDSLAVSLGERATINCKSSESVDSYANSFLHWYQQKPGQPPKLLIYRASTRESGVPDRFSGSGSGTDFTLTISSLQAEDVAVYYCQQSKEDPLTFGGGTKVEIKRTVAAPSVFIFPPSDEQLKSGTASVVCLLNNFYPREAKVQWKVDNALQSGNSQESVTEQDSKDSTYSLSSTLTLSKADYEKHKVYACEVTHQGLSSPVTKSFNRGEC
modifications: Drug-Linker 001 on the cysteine inserted between T299 and Y300 (EU); Drug-Linker 001 (auristatin analogue Compound 1) on the cysteine inserted between T299 and Y300 (EU)
notes: as for B5
As to B7, the Bmax is 2070 AF647 GeoMean fluorescence in assay [5] and 35800 AF647 GeoMean fluorescence in assay [7]. The Kd was 0.064 nM in assay [6] and 0.584 nM in assay [8].

B8: v17427 (telisotuzumab paratope, HetFc, unmodified hinge, full-size IgG1 antibody) (antibody)
heavy 1: QVQLVQSGAEVKKPGASVKVSCKASGYIFTAYTMHWVRQAPGQGLEWMGWIKPNNGLANYAQKFQGRVTMTRDTSISTAYMELSRLRSDDTAVYYCARSEITTEFDYWGQGTLVTVSSASTKGPSVFPLAPSSKSTSGGTAALGCLVKDYFPEPVTVSWNSGALTSGVHTFPAVLQSSGLYSLSSVVTVPSSSLGTQTYICNVNHKPSNTKVDKKVEPKSCDKTHTCPPCPAPELLGGPSVFLFPPKPKDTLMISRTPEVTCVVVDVSHEDPEVKFNWYVDGVEVHNAKTKPREEQYNSTYRVVSVLTVLHQDWLNGKEYKCKVSNKALPAPIEKTISKAKGQPREPQVYVYPPSRDELTKNQVSLTCLVKGFYPSDIAVEWESNGQPENNYKTTPPVLDSDGSFALVSKLTVDKSRWQQGNVFSCSVMHEALHNHYTQKSLSLSPG
heavy 2: not shown
light: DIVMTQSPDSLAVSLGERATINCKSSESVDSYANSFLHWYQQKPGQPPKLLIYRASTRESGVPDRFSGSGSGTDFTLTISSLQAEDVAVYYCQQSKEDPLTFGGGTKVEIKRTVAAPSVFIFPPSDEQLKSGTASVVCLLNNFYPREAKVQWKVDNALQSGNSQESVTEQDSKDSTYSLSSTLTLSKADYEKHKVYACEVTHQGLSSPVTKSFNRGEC
notes: also called variant v17427; unconjugated HetFc variant
As to B8, the Kd came to 0.33 nM in assay [1], 0.026 nM in assay [6], 0.03 nM in assay [4] and 0.328 nM in assay [8]. Further, the Bmax was 2120 AF647 GeoMean fluorescence in assay [5], 34800 AF647 GeoMean fluorescence in assay [2], 34800 AF647 GeoMean fluorescence in assay [7] and 2120 AF647 GeoMean fluorescence in assay [3].

B9: v17427-Drug-Linker 002 DAR 6 (antibody)
heavy 1: B8 heavy 1
heavy 2: not shown
light: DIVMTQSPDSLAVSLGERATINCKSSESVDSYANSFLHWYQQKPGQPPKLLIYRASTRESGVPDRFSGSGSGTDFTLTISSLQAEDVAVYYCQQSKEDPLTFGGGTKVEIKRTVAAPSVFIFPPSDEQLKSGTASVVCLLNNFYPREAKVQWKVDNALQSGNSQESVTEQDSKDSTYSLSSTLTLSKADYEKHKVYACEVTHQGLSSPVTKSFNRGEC
modifications: Drug-Linker 002 stochastically conjugated to lysine residues of the antibody, about DAR 6; Drug-Linker 002 (auristatin analogue Compound 1) stochastically conjugated to lysine residues of the antibody, about DAR 6
notes: Antibody-drug conjugate of v17427
Consider B9, for which the Kd in assay [1] is 0.43 nM; in assay [6], 0.047 nM; in assay [4], 0.05 nM; in assay [8] it was 0.435 nM. Besides, the Bmax in assay [5] is 2150 AF647 GeoMean fluorescence; in assay [2], 33500 AF647 GeoMean fluorescence; in assay [7], 33500 AF647 GeoMean fluorescence; in assay [3], 2150 AF647 GeoMean fluorescence.

B10: v17427-Drug-Linker 002 DAR 4 (antibody)
heavy 1: B8 heavy 1
heavy 2: not shown
light: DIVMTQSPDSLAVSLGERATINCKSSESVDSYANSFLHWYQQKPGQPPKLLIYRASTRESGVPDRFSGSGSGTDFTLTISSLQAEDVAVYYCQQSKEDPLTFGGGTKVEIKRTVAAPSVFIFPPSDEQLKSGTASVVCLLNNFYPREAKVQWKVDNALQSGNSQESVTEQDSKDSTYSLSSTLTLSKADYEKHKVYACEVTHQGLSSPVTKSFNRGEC
modifications: Drug-Linker 002 stochastically conjugated to lysine residues of the antibody, about DAR 4; Drug-Linker 002 (auristatin analogue Compound 1) stochastically conjugated to lysine residues of the antibody, about DAR 4
notes: as for B9
Take B10: the Kd in assay [1] turned out to be 0.43 nM; in assay [6], 0.04 nM; in assay [4], 0.04 nM; in assay [8], 0.428 nM. Also, the Bmax in assay [5] was 2120 AF647 GeoMean fluorescence; in assay [2] it was 34100 AF647 GeoMean fluorescence; in assay [7], 34100 AF647 GeoMean fluorescence; in assay [3], 2120 AF647 GeoMean fluorescence.
